Each block holds one molecule with its values, some of them ahead of it.
Target: hTEM8-AP (human) (UniProt Q9H6X2)
Assay: Biocore (SPR) affinity measurement of anti-TEM8 Fab

hTEM8-AP (human), sequence (Q9H6X2 33-321): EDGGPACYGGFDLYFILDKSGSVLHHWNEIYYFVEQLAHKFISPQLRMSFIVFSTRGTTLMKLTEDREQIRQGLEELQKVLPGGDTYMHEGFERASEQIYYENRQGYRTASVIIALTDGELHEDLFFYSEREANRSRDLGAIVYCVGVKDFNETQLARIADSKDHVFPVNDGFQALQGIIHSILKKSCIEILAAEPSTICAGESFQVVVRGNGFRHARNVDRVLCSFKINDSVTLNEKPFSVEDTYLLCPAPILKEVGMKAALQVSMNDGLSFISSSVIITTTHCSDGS

Molecule: M830 anti-TEM8 fragment antigen-binding (Fab)
Kd: 1.57 nM
koff: 0.000953 s⁻¹
kon: 607000 M⁻¹ s⁻¹

Kd: 0.0591 nM
koff: 0.00018 s⁻¹
kon: 3.05e+06 M⁻¹ s⁻¹
B1: M825 anti-TEM8 fragment antigen-binding (Fab) (Fab, V domains shown)
VH: QVQLVQSGAEVKKPGTSVKVSCKVPGYTFSSYAISWVRQAPGQGLEWMGGIIPIFGTTNYAQKFQGRVTITGEESTSTVYMELSSLRSEDTAVYYCARDTDYMFDYWGQGTLVTVSS
VL: SSELTQDPVVSVALGETVSITCQGDNLRDFYASWYQQKPGQAPLLVMYGKNRRPSGIPDRFSGSTSGNTLSLTITGAQAEDEADYYCSSRDNSKHVVFGGGTKVTVL
